Results: patent publication US20220204996A1
Values belong to the molecule of their own block, whether it stands above or below them.

What was measured:
[1] = target: PSI purified from WT^H6 (Chlamydomonas reinhardtii) (UniProt P12154); assay: cell-based or functional assay
[2] = target: PSI-HydA complex of the ΨH1 strain (hydA1-1 hydA2-1 [psaC-hydA2]) (Chlamydomonas reinhardtii) (UniProt P12154); assay: cell-based or functional assay
[3] = target: PSI-HydA complex purified from ΨH1^H6 (Chlamydomonas reinhardtii) (UniProt P12154); assay: cell-based or functional assay
[4] = target: PSI-HydA complex purified from ΨH1^H6 (Chlamydomonas reinhardtii) (UniProt P12154); assay: immunoblot of isolated PSI particles loaded on equal P700
[5] = substrate: PSI purified from the hydA strain (hydA1-1 hydA2-1) (Chlamydomonas reinhardtii) (UniProt P12154); assay: cell-based or functional assay
[6] = target: PSI-HydA complex of the ΨH1 strain (hydA1-1 hydA2-1 [psaC-hydA2]) (Chlamydomonas reinhardtii) (UniProt P12154); assay: cell-based or functional assay; remark: listed apart in the source

NADP+ photoreduction rate (coupled assay with Fd and FNR) (NADPH s^-1 per PSI) [1]: 1.57 | rate of H2 production in the dark (GC-TCD, ΨH1 culture) (nmol H2 h^-1 (mg Chl)^-1) [2]: 330 | NADP+ photoreduction rate (coupled assay with Fd and FNR) (NADPH s^-1 per PSI) [3]: 0.77 | ability of PSI-HydA to reduce algal Fd (in a coupled assay) [3]: 50%
Molecule: ferredoxin (Fd) (from UniProt P07839 33-126)

ratio of anti-PsaD cross-reactive bands (PSI : PSI-HydA) (ratio to WT PSI) [4]: 1.02
B1: PsaD (protein, Chlamydomonas reinhardtii, UniProt Q39615 36-196, looked up)
chain: EAEAAPAAAKKAAEKPAWTVPTLNPDTPSPIFGGSTGGLLRKAQTEEFYVITWEAKKEQIFEMPTGGAAIMRQGPNLLKFGKKEQCLALTTQLRNKFKLTPCFYRVFPDGKVQYLHPADGVYPEKVNAGRVGANQNMRRIGQNVNPIKVKFSGRMMSPAEI

Flavodoxin photoreduction turnover rate [5]: 0.77 s⁻¹ | Flavodoxin photoreduction turnover rate [6]: 0.088 s⁻¹ | light-driven reduction of cyanobacterial flavodoxin, drop against PSI [6]: 9 fold
B2: Recombinant Synechococcus sp. PCC7002 flavodoxin (protein, UniProt P31158 2-170, looked up)
chain: SKIGLFFGTQTGNTEELAQAIQAAFGGSDIVELFDVAEVDIEALRDFDQLIIGCPTWNVGELQSDWEALYDDLDDVDFSGKTIAYFGAGDQVGYADNFQDAMGVLEEKITSLGGKTVGQWPTAGYDHSESKAERDGKFVGLAIDEDNQPELTAERIQAWVAQLKPAFGL
